The results in this text go back to paper PMC7954794, “Protein context shapes the specificity of SH3 domain-mediated interactions in vivo” (Nature Communications, 2021).

The test system of this experiment is Abp1 PPIs. The experiment in a line: DHFR-PCA of Abp1 SH3-swapped baits (Fig. 2B-D, S2C, S2F).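 On Protein-protein interaction distance between Abp1 SH3-swapped baits, to ABP1: Euclidean distance between DHFR-PCA score profiles of the baits.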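 On Protein-protein interaction distance between Abp1 SH3-swapped baits, to BEM1-2: Euclidean distance between DHFR-PCA score profiles of the baits.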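 On Protein-protein interaction distance between Abp1 SH3-swapped baits, to BOI1: Euclidean distance between DHFR-PCA score profiles of the baits.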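 On Protein-protein interaction distance between Abp1 SH3-swapped baits, to BZZ1-1: Euclidean distance between DHFR-PCA score profiles of the baits.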 The experiment is classed as cell-based, Saccharomyces cerevisiae. In short, it runs like this:
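Yeast DHFR-PCA in which Abp1 baits, carrying their SH3 replaced by CRISPR–Cas9 with one of 27 yeast SH3s or human CTTN, HCLS1 or DBNL SH3s, were mated against 575 SH3-associated DHFR F[3] preys plus 40 negative controls. Four tests were run per PPI. Diploids were selected twice (48 h, 30 °C), then grown 4 days on PCA selection media.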

The mark [1] stands for this setting: number of PPIs, difference, Abp1 SH3-swapped with the listed SH3, Fig2D,S2F.

B1: BOI1 (protein, UniProt P38041 1-980, looked up)
BEM1-interacting protein 1: MSLEGNTLGKGAKSFPLYIAVNQYSKRMEDELNMKPGDKIKVITDDGEYNDGWYYGRNLRTKEEGLYPAVFTKRIAIEKPENLHKSPTQESGNSGVKYGNLNDSASNIGKVSSHQQENRYTSLKSTMSDIDKALEELRSGSVEQEVSKSPTRVPEVSTPQLQDEQTLIQEKTRNEENTTHDSLFSSTADLNLSSESLKNISKSNISTKSLEPSSESVRQLDLKMAKSWSPEEVTDYFSLVGFDQSTCNKFKEHQVSGKILLELELEHLKELEINSFGIRFQIFKEIRNIKSAIDSSSNKLDADYSTFAFENQAAQLMPAATVNRDEIQQQISSKCNKLSSESSDRKSSSVTTELQRPSSVVVNPNFKLHDPAEQILDMTEVPNLFADKDIFESPGRAPKPPSYPSPVQPPQSPSFNNRYTNNNARFPPQTTYPPKNKNPTVYSNGLIPNSSTSSDNSTGKFKFPAMNGHDSNSRKTTLTSATIPSINTVNTDESLPAISNISSNATSHHPNRNSVVYNNHKRTESGSSFVDLFNRISMLSPVKSSFDEEETKQPSKASRAVFDSARRKSSYGHSRDASLSEMKKHRRNSSILSFFSSKSQSNPTSPTKQTFTIDPAKMTSHSRSQSNSYSHARSQSYSHSRKHSLVTSPLKTSLSPINSKSNIALAHSETPTSSNNKEAVSQPSEGKHKHKHKHKSKHKHKNSSSKDGSSEEKSKKKLFSSTKESFVGSKEFKRSPSELTQKSTKSILPRSNAKKQQTSAFTEGIRSITAKESMQTADCSGWMSKKGTGAMGTWKQRFFTLHGTRLSYFTNTNDEKERGLIDITAHRVLPASDDDRLISLYAASLGKGKYCFKLVPPQPGSKKGLTFTEPRVHYFAVENKSEMKAWLSAIIKATIDIDTSVPVISSYATPTIPLSKAQTLLEEARLQTQLRDAEEEEGRDQFGWDDTQNKRNSNYPIEQDQFETSDYLESSAFEYPGGRL
For B1, the “Protein-protein interaction distance between Abp1 SH3-swapped baits, to ABP1” value (Abp1 bait with swapped SH3, distance to bait with ABP1 SH3, sheet Fig2C) was found to be 11.59. For the same molecule, the “Protein-protein interaction distance between Abp1 SH3-swapped baits, to BBC1” value (distance to Abp1 bait with BBC1 SH3, sheet Fig2C) was found to be 9.448. Also, the “Protein-protein interaction distance between Abp1 SH3-swapped baits, to BEM1-1” value (distance to Abp1 bait with BEM1-1 SH3, sheet Fig2C) is 8.19. Moreover, the “Protein-protein interaction distance between Abp1 SH3-swapped baits, to BEM1-2” value (distance to Abp1 bait with BEM1-2 SH3, sheet Fig2C) was 28.06. Moreover, the “Protein-protein interaction distance between Abp1 SH3-swapped baits, to BOI1” value (distance to Abp1 bait with BOI1 SH3, sheet Fig2C) is given as 0.00. Also, under “distance to Abp1 bait with BOI2 SH3, sheet Fig2C”, the “Protein-protein interaction distance between Abp1 SH3-swapped baits, to BOI2” value turned out to be 6.71. Further, the “Protein-protein interaction distance between Abp1 SH3-swapped baits, to BUD14” value (distance to Abp1 bait with BUD14 SH3, sheet Fig2C) is given as 11.14. Besides, under “distance to Abp1 bait with BZZ1-1 SH3, sheet Fig2C”, the “Protein-protein interaction distance between Abp1 SH3-swapped baits, to BZZ1-1” value turned out to be 8.863. Besides, the “Protein-protein interaction distance between Abp1 SH3-swapped baits, to BZZ1-2” value (distance to Abp1 bait with BZZ1-2 SH3, sheet Fig2C) was 6.782. Further, the “Protein-protein interaction distance between Abp1 SH3-swapped baits, to CDC25” value (distance to Abp1 bait with CDC25 SH3, sheet Fig2C) turned out to be 21. Further, the “Protein-protein interaction distance between Abp1 SH3-swapped baits, to CTTN” value (distance to Abp1 bait with CTTN SH3, sheet Fig2C) was found to be 8.701. Besides, the “Protein-protein interaction distance between Abp1 SH3-swapped baits, to CYK3” value (distance to Abp1 bait with CYK3 SH3, sheet Fig2C) was 21.68. For the same molecule, the “Protein-protein interaction distance between Abp1 SH3-swapped baits, to DBNL” value (distance to Abp1 bait with DBNL SH3, sheet Fig2C) was 8.616. Also, the “Protein-protein interaction distance between Abp1 SH3-swapped baits, to FUS1” value (distance to Abp1 bait with FUS1 SH3, sheet Fig2C) came out at 12.53. For the setting “distance to Abp1 bait with HCLS1 SH3, sheet Fig2C”, the “Protein-protein interaction distance between Abp1 SH3-swapped baits, to HCLS1” value is on record as 12.36. In addition, the “Protein-protein interaction distance between Abp1 SH3-swapped baits, to HOF1” value (distance to Abp1 bait with HOF1 SH3, sheet Fig2C) is listed as 26.74. In addition, the “Protein-protein interaction distance between Abp1 SH3-swapped baits, to HSE1” value (distance to Abp1 bait with HSE1 SH3, sheet Fig2C) came out at 7.847. The “Protein-protein interaction distance between Abp1 SH3-swapped baits, to LSB1” value (distance to Abp1 bait with LSB1 SH3, sheet Fig2C) was determined as 16.11. Further, where the note is “distance to Abp1 bait with LSB3 SH3, sheet Fig2C”, the “Protein-protein interaction distance between Abp1 SH3-swapped baits, to LSB3” value was found to be 16.12. Besides, the “Protein-protein interaction distance between Abp1 SH3-swapped baits, to MYO3” value (distance to Abp1 bait with MYO3 SH3, sheet Fig2C) is listed as 14.63. The “Protein-protein interaction distance between Abp1 SH3-swapped baits, to MYO5” value (distance to Abp1 bait with MYO5 SH3, sheet Fig2C) is recorded as 14.33. For the setting “distance to Abp1 bait with NBP2 SH3, sheet Fig2C”, the “Protein-protein interaction distance between Abp1 SH3-swapped baits, to NBP2” value is on record as 10.48. Moreover, where the note is “distance to Abp1 bait with PEX13 SH3, sheet Fig2C”, the “Protein-protein interaction distance between Abp1 SH3-swapped baits, to PEX13” value is on record as 13.22. The “Protein-protein interaction distance between Abp1 SH3-swapped baits, to PIN3” value (distance to Abp1 bait with PIN3 SH3, sheet Fig2C) is listed as 13.58. Where the note is “distance to Abp1 bait with RVS167 SH3, sheet Fig2C”, the “Protein-protein interaction distance between Abp1 SH3-swapped baits, to RVS167” value was found to be 11.58. Further, the “Protein-protein interaction distance between Abp1 SH3-swapped baits, to SDC25” value (distance to Abp1 bait with SDC25 SH3, sheet Fig2C) amounted to 29.16. For the same molecule, for the setting “distance to Abp1 bait with SHO1 SH3, sheet Fig2C”, the “Protein-protein interaction distance between Abp1 SH3-swapped baits, to SHO1” value was 8.152. Also, the “Protein-protein interaction distance between Abp1 SH3-swapped baits, to SLA1-1” value (distance to Abp1 bait with SLA1-1 SH3, sheet Fig2C) came to 23.94. Further, where the note is “distance to Abp1 bait with SLA1-2 SH3, sheet Fig2C”, the “Protein-protein interaction distance between Abp1 SH3-swapped baits, to SLA1-2” value came to 13.51. In addition, the “Protein-protein interaction distance between Abp1 SH3-swapped baits, to SLA1-3” value (distance to Abp1 bait with SLA1-3 SH3, sheet Fig2C) amounted to 15.75. In addition, the “Protein-protein interaction distance between Abp1 SH3-swapped baits, to YSC84” value (distance to Abp1 bait with YSC84 SH3, sheet Fig2C) is reported as 16.61. Further, under setting [1], the “PPIs gained by Abp1 - SH3-dependent PPIs gained by Abp1” value is reported as 1 and the “SH3-dependent PPIs - SH3-dependent PPIs gained by Abp1” value was 2. The “SH3-dependent PPIs gained by Abp1” value (number of PPIs, Abp1 SH3-swapped with the listed SH3, DHFR-PCA, Fig2D,S2F) came to 1.

B2: WT (protein, UniProt P15891 2-592, looked up)
Actin-binding protein: ALEPIDYTTHSREIDAEYLKIVRGSDPDTTWLIISPNAKKEYEPESTGSSFHDFLQLFDETKVQYGLARVSPPGSDVEKIIIIGWCPDSAPLKTRASFAANFAAVANNLFKGYHVQVTARDEDDLDENELLMKISNAAGARYSIQTSSKQQGKASTPPVKKSFTPSKSPAPVSKKEPVKTPSPAPAAKISSRVNDNNDDDDWNEPELKERDFDQAPLKPNQSSYKPIGKIDLQKVIAEEKAKEDPRLVQKPTAAGSKIDPSSDIANLKNESKLKRDSEFNSFLGTTKPPSMTESSLKNDDDKVIKGFRNEKSPAQLWAERKAKQNSGNAETKAEAPKPEVPEDEPEGEPDVKDLKSKFEGLAASEKEEEEMENKFAPPPKKSEPTIISPKPFSKPQEPVKAEEAEQPKTDYKKIGNPLPGMHIEADNEEEPEENDDDWDDDEDEAAQPPLPSRNVASGAPVQKEEPEQEEIAPSLPSRNSIPAPKQEEAPEQAPEEEIEEEAEEAAPQLPSRSSAAPPPPPRRATPEKKPKENPWATAEYDYDAAEDNELTFVENDKIINIEFVDDDWWLGELEKDGSKGLFPSNYVSLGN
For B2, the “Interactions in Abp1” value (number of interactions of Abp1 carrying the named SH3, sheet FigS2A-B) was determined as 80.
